One test has as its target HLA-B*27:05. The test is described as follows: IEDB peptide-MHC binding, purified MHC/direct/fluorescence; filed as Kd, often an IC50 or EC50 that approximates it; ≥ and ≤ were set here for values at or beyond the usual limits of such assays.
The next test has as its target HLA-B*07:02. Described as above.
The target in a further test is HLA-A*24:02. The description is as above.
A further test concerns the target HLA-B*40:01. Described as above.
The target of another test is HLA-B*58:01. The description is as above.
The target in test [1] is HLA-B*15:01. Described as above.
In another test the target is HLA-A*03:01. The description is as above.
Test [2] deals with HLA-A*02:01. The test is described as above.
For test [3], the target named is HLA-A*01:01. The test is described as above.
The target in the next test is HLA-B*44:02. Described as above.
The target of the next test is HLA-B*08:01. Described as above.
In a further test the target is HLA-C*12:03. The description is as above. As to conditions: source organism: Vaccinia virus WR.
A further test deals with HLA-C*15:02. Described as above. The following applies: source organism: Vaccinia virus WR.
Another test deals with HLA-C*04:01. The test is described as above.
The target in a further test is HLA-C*08:02. The description is as above. The following applies: source organism: Vaccinia virus WR.
A further test concerns the target HLA-C*06:02. The description is as above. As to conditions: source organism: Vaccinia virus WR.
Test [4] addresses HLA-A*02:01. Kind of test: IEDB peptide-MHC binding, purified MHC/competitive/fluorescence; filed as Kd, often an IC50 or EC50 that approximates it; ≥ and ≤ were set here for values at or beyond the usual limits of such assays.
A further test deals with HLA-A*69:01. The test is described as follows: IEDB peptide-MHC binding, purified MHC/direct/fluorescence; filed as Kd, often an IC50 or EC50 that approximates it; ≥ and ≤ were set here for values at or beyond the usual limits of such assays. The following applies: source organism: Marburg virus - Musoke, Kenya, 1980.
In a further test the target is HLA-A*23:01. Described as above. As to conditions: source organism: Marburg virus - Musoke, Kenya, 1980.
The next test has as its target HLA-A*31:01. Described as above.
The target of the next test is HLA-A*68:02. The test is described as above. The following applies: source organism: Marburg virus - Musoke, Kenya, 1980.
Another test concerns the target HLA-A*24:03. Described as above. As to conditions: source organism: Marburg virus - Musoke, Kenya, 1980.
The next test has as its target HLA-B*08:03. Described as above. The following applies: source organism: Ravn virus - Ravn, Kenya, 1987.
In test [5] the target is HLA-B*57:01. The test is described as above. As to conditions: source organism: Marburg virus - Musoke, Kenya, 1980.
The next test has as its target HLA-A*26:03. The description is as above. As to conditions: source organism: Ravn virus - Ravn, Kenya, 1987.
The next test concerns the target HLA-A*11:01. The test is described as above.
A further test concerns the target HLA-B*15:17. Described as above. The following applies: source organism: Marburg virus - Musoke, Kenya, 1980.
Test [6] has as its target HLA-B*15:01. The test is described as follows: IEDB peptide-MHC binding, purified MHC/competitive/fluorescence; filed as Kd, often an IC50 or EC50 that approximates it; ≥ and ≤ were set here for values at or beyond the usual limits of such assays. The following applies: source organism: Orthomarburgvirus marburgense.
The next test addresses HLA-B*18:01. Described as above. As to conditions: source organism: Orthomarburgvirus marburgense.
The target of a further test is HLA-A*26:02. The description is as above. The following applies: source organism: Orthomarburgvirus marburgense.
In the next test the target is HLA-B*35:01. The description is as above. The following applies: source organism: Orthomarburgvirus marburgense.
In a further test the target is HLA-A*02:06. Described as above. As to conditions: source organism: Orthomarburgvirus marburgense.
Another test has as its target HLA-C*05:01. Kind of test: IEDB peptide-MHC binding, purified MHC/direct/fluorescence; filed as Kd, often an IC50 or EC50 that approximates it; ≥ and ≤ were set here for values at or beyond the usual limits of such assays. As to conditions: source organism: Escherichia coli B171.
A further test deals with HLA-A*80:01. Described as above.
For the next test, the target named is HLA-A*32:01. The test is described as follows: IEDB peptide-MHC binding, purified MHC/competitive/radioactivity; filed as Kd, often an IC50 or EC50 that approximates it; ≥ and ≤ were set here for values at or beyond the usual limits of such assays. The following applies: source organism: Dengue virus 2 Jamaica/1409/1983.
The target in test [7] is HLA-B*15:01. The test is described as above. As to conditions: source organism: Dengue virus 2 Jamaica/1409/1983.
For test [8], the target named is HLA-B*57:01. The test is described as above. The following applies: source organism: Dengue virus 2 Jamaica/1409/1983.
The target in another test is HLA-A*30:02. The test is described as above. The following applies: source organism: Dengue virus 2 Jamaica/1409/1983.
For another test, the target named is HLA-B*46:01. The test is described as follows: IEDB peptide-MHC binding, purified MHC/direct/fluorescence; filed as Kd, often an IC50 or EC50 that approximates it; ≥ and ≤ were set here for values at or beyond the usual limits of such assays. The following applies: source organism: Influenza A virus (A/Viet Nam/HN/2004(H5N1)).
The target of test [9] is HLA-A*01:01. The test is described as follows: IEDB peptide-MHC binding, purified MHC/competitive/fluorescence; filed as Kd, often an IC50 or EC50 that approximates it; ≥ and ≤ were set here for values at or beyond the usual limits of such assays. The following applies: source organism: Homo sapiens.
Setting [10] is: source organism: Giardia lamblia ATCC 50803.
Where [11] appears, read: source organism: Vaccinia virus WR.
The mark [12] stands for this setting: source organism: Marburg virus - Musoke, Kenya, 1980.
Setting [13] is: source organism: Mycobacterium tuberculosis.
Where [14] appears, read: source organism: Influenza A virus (A/Viet Nam/HN/2004(H5N1)).

The source of these data is the Immune Epitope Database (IEDB).

pKd: −log10 of the molar value.

As usually defined, the pKd is −log10 of the Kd, conventionally taken in molar units. ETKKRMDYF: the pKd with HLA-B*27:05 (setting [10]), with HLA-B*07:02 (setting [10]), in the test with HLA-A*24:02 (setting [10]), with HLA-B*40:01 (setting [10]), with HLA-B*58:01 (setting [10]) and with HLA-B*15:01 [1] (setting [10]) was no more than 4.70 in each case. The pKd with HLA-A*03:01 (setting [10]) was no more than 4.70; in the test with HLA-A*02:01 [2] (setting [10]), no more than 4.70; with HLA-A*01:01 [3] (setting [10]) it was no more than 4.70; with HLA-B*44:02 (setting [10]), no more than 4.70; with HLA-B*08:01 (setting [10]), 5.81.

Consider FTSSFYNYV, for which the pKd with HLA-C*12:03 was no less than 9.00; with HLA-C*15:02 it was 7.72; with HLA-C*04:01 (setting [11]) it was no more than 4.70; with HLA-C*08:02 it was 6.09; with HLA-C*06:02, 7.05; with HLA-A*02:01 [4] (setting [11]) it was 8.34.

As to GFPSLESSF, the pKd is no more than 4.70 with HLA-A*69:01; no more than 4.70 in the test with HLA-B*07:02 (setting [12]); 6.59 with HLA-A*24:02 (setting [12]); 7.26 in the test with HLA-A*23:01; no more than 4.70 with HLA-A*31:01 (setting [12]); no more than 4.70 in the test with HLA-A*68:02. For the same sequence, the negative-log Kd (pKd) in the test with HLA-B*58:01 (setting [12]) is no more than 4.70; with HLA-A*24:03, 7.40; with HLA-B*08:03, no more than 4.70; with HLA-B*57:01 [5], no more than 4.70; with HLA-A*02:01 [2] (setting [12]), no more than 4.70; with HLA-A*01:01 [3] (setting [12]) it was no more than 4.70. Besides, the pKd is no more than 4.70 with HLA-B*08:01 (source organism: Ravn virus - Ravn, Kenya, 1987); no more than 4.70 with HLA-A*26:03; no more than 4.70 with HLA-A*11:01 (setting [12]); no more than 4.70 with HLA-B*15:17; no more than 4.70 with HLA-B*15:01 [6]; 6.58 in the test with HLA-B*18:01. Also, the pKd in the test with HLA-A*26:02 was no more than 4.70; with HLA-B*35:01, 6.06; with HLA-A*02:06 it was 5.53.

On to HADDIPVPV, for which the pKd is 8.40 in the test with HLA-C*05:01, no more than 4.70 with HLA-C*04:01 (source organism: Escherichia coli B171) and 7.19 with HLA-A*02:01 [4] (source organism: Escherichia coli).

The sequence IFPSMYFLM had a pKd with HLA-A*24:02 (source organism: Entamoeba histolytica HM-1:IMSS) of 8.70.

Turning to KTVCVQATK, the pKd in the test with HLA-A*80:01 (setting [13]) and with HLA-A*01:01 [3] (setting [13]) was no more than 4.70 in each case.

As to KTWAYHGSY, the pKd with HLA-A*32:01 was 8.30; with HLA-B*15:01 [7], 8.54; in the test with HLA-B*57:01 [8] it was 8.34; with HLA-A*30:02 it was 5.39; with HLA-A*80:01 (source organism: dengue virus type 3) it was 5.52.

For the sequence RNEQGQTLW, the pKd in the test with HLA-B*27:05 (setting [14]), in the test with HLA-B*07:02 (setting [14]), in the test with HLA-A*24:02 (setting [14]), with HLA-A*31:01 (setting [14]), in the test with HLA-B*40:01 (setting [14]) and with HLA-B*46:01 was no more than 4.70 each time. Besides, the pKd was 7.14 with HLA-B*58:01 (setting [14]); no more than 4.70 with HLA-B*15:01 [1] (setting [14]); no more than 4.70 in the test with HLA-A*03:01 (setting [14]); no more than 4.70 with HLA-A*02:01 [2] (setting [14]); no more than 4.70 in the test with HLA-A*01:01 [3] (setting [14]); no more than 4.70 with HLA-B*44:02 (setting [14]). The pKd in the test with HLA-B*08:01 (setting [14]) and with HLA-A*11:01 (setting [14]) was no more than 4.70 throughout.

WVDSTPPPG: the pKd with HLA-A*80:01 (source organism: Homo sapiens) was no more than 4.70; with HLA-A*01:01 [9], 4.93.
